# Laboratory results reported in a protein production outcome set (Wang et al. 2014).
# Assay: label from the status in PepcDB records
# 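Also: failed if final PepcDB status was selected cloned or expressed and not failed if soluble or beyond.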
row,Sequence,protein production
1,MEEGPIKKKLKSAGQGSGKTDAFRNFEQFFFRLNTLYTFLICRKHVVPTFKTLCGPIETALKRTVTKEDLAMVMALMPRECVFKYIDENQIYTETKIFDFNNGGFQQKENDIFELKDVDDQNQTQKSTQLLIFEFIDGTMQRSWSASDRFSQIKIPTYTTEEMKKMISKREALFKSRLREFILEKEKANLDPFSELTNLAQKYIPRERDYEDPIEAMMKAKQESNEMSIPNYSNNSVITTIPQMIEKLKSTEFYASQIKHCFTIPSRTAKYKGLCFELAPEVYQGMEHENFYSHQADAINSLHQGENVIITTSTSSGKSLIYQLAAIDLLLKDPESTFMYIFPTKALAQDQKRAFKVILSKIPELKNAVVDTYDGDTEPEERAYIRKNARVIFTNPDMIHTSILPNHANWRHFLYHLKLVVVDELHIYKGLFGSHVALVMRRLLRLCHCFYENSGLQFISCSATLKSPVQHMKDMFGINEVTLIHEDGSPTGAKHLVVWNPPILPQHERKRENFIRESAKILVQLILNNVRTIAFCYVRRVCELLMKEVRNIFIETGREDLVTEVMSYRGGYSASDRRKIEREMFHGNLKAVISTNALELGIDIGGLDAVLMCGFPLSMANFHQQSGRAGRRNNDSLTLVVASDSPVDQHYVAHPESLLEVNNFESYQDLVLDFNNILILEGHIQCAAFELPINFERDKQYFTESHLRKICVERLHHNQDGYHASNRFLPWPSKCVSLRGGEEDQFAVVDITNGRNIIIEEIEASRTSFTLYDGGIFIHQGYPYLVKEFNPDERYAKVQRVDVDWVTNQRDFTDVDPQEIELIRSLRNSDVPVYFGKIKTTIIVFGFFKVDKYKRIIDAIETHNPPVIINSKGLWIDMPKYALEICQKKQLNVAGAIHGAQHAIMGMLPRFIVAGVDEIQTECKAPEKEFAERQTKRKRPARLIFYDSKGGKYGSGLCVKAFEHIDDIIESSLRRIEECPCSDGCPDCVAASFCKENSLVLSKPGAQVVLHCILGHSEDSFIDLIKDGPEPNMPEIKVETVIPVSEHVNFSDDFKIIDVRRATKDDTHTNEIIKKEI,failed
2,MEEGVNMDIRPTRIELIRTRRRIRLAKKGLDLLKMKRSALIYEFLQISRTIRGMKENLRKEVVEALNIIKVASVLEGSLALERIANMSSDSRINVNSRNVMGVNIPTLEVSYNLSILSDVYRTVSVPVAIDDSIRRFQKLFYDLILIVEKENSLRNLLMEIDRTKRRSNAIENILIPRLEYQAKMIKMTLDERERDTFTTLKTIKKKIEAENDLEHHHHHH,failed
3,MEEHNANPLRFETNPYHNIVIKDRKVMELTGVKQIDSFDANEFLLETAQGWLMIQGKDLKLGKLDTERGDVIINGIIEALSYVSNKKGTAKETMMSKLFR,failed
4,MEEKQERYSISEKTYQEFIDHTRVLALEERGIVQCGIATCRDFFSVYRKNQKKHMLLYTVRGKGWLESGACRYELEPGSLVVVPAGIENGFGMEDETWQIAWVFLSQHKEWSMVGENISYQLTPAPEVMYSCIQTLLRSINLSIDYGSAVGAHSVAQLELMLNMPSSESVSRNQLKLRRVFDLVQRQLHKDWSVEQLAALYPCSEPHLHRLTQQQFGRSPMAHLMRMRMEYAARLLRSTEWPIQHIGEIVGYPTSANFSTRFKAWSSMTPREFRQNGRIERDPEK,failed
5,MEEKQILCVGLVVLDVISLVDKYPKEDSEIRCLSQRWQRGGNASNSCTILSLLGAPCAFMGSMAPGHVADFVLDDLRRYSVDLRYTVFQTTGSVPIATVIINEASGSRTILYYDRSLPDVSATDFEKVDLTQFKWIHIEGRNASEQVKMLQRIDAHNTRQPPEQKIRVSVEVEKPREELFQLFGYGDVVFVSKDVAKHLGFQSAEEALRGLYGRVRKGAVLVCAWAEEGADALGPDGKLLHSDAFPPPRVVDTLGAGDTFNASVIFSLSQGRSVQEALRFGCQVAGKKCGLQGFDGIV,failed
6,MEELFCIGCGARIQTENKDAAGYTPRAALEKGLETGELYCQRCFRLRHYNEITDVHITDDEFLKLLHEVGDSDALVVNVIDIFDFNGSIIPGLSRFVAGNDVLLVGNKKDILPKSVKDGKVTQWLTERAHEEGLRPVDVILTSAQNHHAIKDLIDTIEKYRHGQDVYVVGVTNVGKSTLINAIIREITGSRDVITTSRFPGTTLDKIEIPLDDGSYIFDTPGIIHRHQMAHYLTAKNLKYVSPKKEIKPKTYQLNSEQTLFLAGLARFDFISGQKQGFTAYFDNNLNLHRTKLVGADEFYTKHVGKLLTPPTGKEVSDFPKLVRHEFTIKDKMDIVYSGLGWIRVKSEAENPVVVAAWAPEGVAVVLRKALI,failed
7,MEELVGLLRIRVKRGINLAQRDTLSSDPFVVITMGSQKLKTRVVENNCNPEWNEELTLALRHPDEPVNLIVYDKDTFTSHDKMGDAKIDIKPFLEVHKMGLQELPDGTEIKRVVPNRENCLAEASSIVSNNGKIVQNMILLLRNVECGEVEIQLEWIDIPGSRGL,failed
8,MEEPKWLEGLLRTNFFSICPRHRETPRNECNMFCLSCQNAAFCFYCRSSFHIDHPVLQIRRSSYHDVVRVSEIENALDIRGVQTYVINSARVLFLNERPQPKNSSHEPFLIPFASVPWVARFVFLHLFSMQNSFL,not failed
9,MEEPLRQESPTTFHAKTSDRGQIDLGISKHKTVAEAWEGYRQRRHRSTHLQAIETALLQQRNDRTEDEDIVLWKGKNDVYKPQFLTKETLNHMRTISMDVDWYKGVWFGHSTPKYSFCVWLAVLNRLSTGDRMTHWNGGQSAACVLCHNAPETRDHLFFSCDFASIVWSNLARGIYGDRFSTHWQDLIQAISGSWMTPLDSFFARYLFQATVHTIWRERNGRNHGEKPNSAALLIK,failed
10,MEERSQLFLEQYLSSVSREVSEKYTSFSADYFCADEYNANVCADLILRGEKRASCSLEYWYSQKGELMPQVGHLQVVTNWDGKPICIIEITSVSKCQYNQVSEDFAASEGEGDKSLAWWQEAHRNFFSRECHELGIEFREDMLLVLEHFKVVYH,not failed
11,MEESATVEVVVGRVGRAHGLRGDVVVEVRTDEPDARFGVGATVQIEGSRRDLTVVRSRWAKGCLIVAFDEVKDRQGAEELRGSVLVVDVEPNDDPDDPDEFWDRRLRGLTVVDESGKSRGAVKDVLHMPAQDVLVIDVSGEEHLVPFVHQLVPTVDVASGRIVVSGIPGLLDSNAEEAR,failed
12,MEESRESPAEHGYYMPAEWDSHAQTWIGWPERQDNWRHNALPAQRVFADVAKAISKFEPVTVCASPAQWENARKQLPEDIRVVEMSMNDSWFRDSGPTFIVRKRPVKLSSLNRNIAGIDWNFNAWGGANDGCYNDWSHDLLVSRKILALERIPRFQHSMILEGGSIHVDGEGTCLVTEECLLNKNRNPHMSKEQIEEELKKYLGVQSFIWLPRGLYGDEDTNGHIDNMCCFARPGVVLLSWTDDETDPQYERSVEALSVLSNSIDARGRKIQVIKLYIPEPLYMTEEESSGITQDGEAIPRLAGTRLAASYVNFYIANGGIIAPQFGDPIRDKEAIRVLSDTFPHHSVVGIENAREIVLAGGNIHCITQQQPAEPTSVAENGH,not failed
13,MEEVLKLKIPASTANLGVGFDSIGMALDKYLHMSIRKIERSNWEFLYYSSELEGLPKDENNYIYQTALNVAHKYNVTLPSLQIEMRSDIPLARGLGSSASALVGALFIANYFGNIQLSKYELLQLATEIEGHPDNVAPTIYGGLIAGFYNPITKIT,failed
14,MEFCPKCKSLMIYQGDKLVCRKCGYEKEADDSEELVIKVERNKEDVPVIEGENLKTLPTTKAICPACGHNEAFWWLRQLRAADESEVRFFRCTKCGKTWREYD,failed
15,MEFEMLETETNGTIIKVIGVGGAGGNAVQHMINKGVQGVDFVVMNTDAQALSRSRAPSVIQLGNTGLGAGAKPEMGRAAAEEARERIADALRGAHMVFITAGMGGGTGTGAAPVVAQIAKEMGILTVGVVSKPFEFEGGKRMRVAEAGSQQLEDHVDSLIVVLNDKLFEVMGDDAEMDKCFQCADDVLNNAVAGIAEIINVDGLVNVDFEDVKTVMGEQGKAMMGTATVAGVDRARLAAEQAVASPLLEGVDLSGARGVLVNITSSRSLRLSETREVMNTIKSYAADDATVIFGAVYDDAMGDALRVTVVATGLGRAAKKQQSAPMTLLRTGTDNQPISAAPQGYAASHHVSTGDYGAFDTPAVWRNSRETAASHVQALQEKGVDTYDIPAFLRKQAD,not failed
16,MEFTAEQLSQYNGTDESKPIYVAIKGRVFDVTTGKSFYGSGGDYSMFAGKDASRALGKMSKNEEDVSPSLEGLTEKEINTLNDWETKFEAKYPVVGRVVS,not failed
17,MEGALAANWSAEAANASAAPPGAEGNRTAGPPRRNEALARVEVAVLCLILLLALSGNACVLLALRTTRQKHSRLFFFMKHLSIADLVVAVFQVLPQLLWDITFRFYGPDLLCRLVKYLQVVGMFASTYLLLLMSLDRCLAICQPLRSLRRRTDRLAVLATWLGCLVASAPQVHIFSLREVADGVFDCWAVFIQPWGPKAYITWITLAVYIVPVIVLATCYGLISFKIWQNLRLKTAAAAAAEAPEGAAAGDGGRVALARVSSVKLISKAKIRTVKMTFIIVLAFIVCWTPFFFVQMWSVWDANAPKEASAFIIVMLLASLNSCCNPWIYMLFTGHLFHELVQRFLCCSASYLKGRRLGETSASKKSNSSSFVLSHRSSSQRSCSQPSTA,not failed
18,MEGERMNAFPSTMMDEELNLWDFLERAAALFGRKEVVSRLHTGEVHRTTYAEVYQRARRLMGGLRALGVGVGDRVATLGFNHFRHLEAYFAVPGMGAVLHTANPRLSPKEIAYILNHAEDKVLLFDPNLLPLVEAIRGELKTVQHFVVMDEKAPEGYLAYEEALGEEADPVRVPERAACGMAYTTGTTGLPKGVVYSHRALVLHSLAASLVDGTALSEKDVVLPVVPMFHVNAWCLPYAATLVGAKQVLPGPRLDPASLVELFDGEGVTFTAGVPTVWLALADYLESTGHRLKTLRRLVVGGSAAPRSLIARFERMGVEVRQGYGLTETSPVVVQNFVKSHLESLSEEEKLTLKAKTGLPIPLVRLRVADEEGRPVPKDGKALGEVQLKGPWITGGYYGNEEATRSALTPDGFFRTGDIAVWDEEGYVEIKDRLKDLIKSGGEWISSVDLENALMGHPKVKEAAVVAIPHPKWQERPLAVVVPRGEKPTPEELNEHLLKAGFAKWQLPDAYVFAEEIPRTSAGKFLKRALREQYKNYYGGA,not failed
19,MEGESVKLSSQTLIQAGDDEKNQRTITVNPAHMGKAFKVMNELRSKQLLCDVMIVAEDVEIEAHRVVLAACSPYFCAMFTGDMSESKAKKIEIKDVDGQTLSKLIDYIYTAEIEVTEENVQVLLPAASLLQLMDVRQNCCDFLQSQLHPTNCLGIRAFADVHTCTDLLQQANAYAEQHFPEVMLGEEFLSLSLDQVCSLISSDKLTVSSEEKVFEAVISWINYEKETRLEHMAKLMEHVRLPLLPRDYLVQTVEEEALIKNNNTCKDFLIEAMKYHLLPLDQRLLIKNPRTKPRTPVSLPK,not failed
20,MEGKEEDVRVGANKFPERQPIGTSAQSDKDYKEPPPAPFFEPGELSSWSFWRAGIAEFIATFLFLYITVLTVMGVKRSPNMCASVGIQGIAWAFGGMIFALVYCTAGISGGHINPAVTFGLFLARKLSLTRALYYIVMQCLGAICGAGVVKGFQPKQYQALGGGANTVAHGYTKGSGLGAEIIGTFVLVYTVFSATDAKRNARDSHVPILAPLPIGFAVFLVHLATIPITGTGINPARSLGAAIIYNKDHSWDDHWVFWVGPFIGAALAALYHVVVIRAIPFKSRS,failed
21,MEGMDPLAVLAESRLLPLLTVRGGEDLLGLARVLEEEGVGALEITLRTEKGLEALKALRKSGLLLGAGTVRSPKEAEAALEAGAAFLVSPGLLEEVAALAQARGVPYLPGVLTPTEVERALALGLSALKFFPAEPFQGVRVLRAYAEVFPEVRFLPTGGIKEEHLPHYAALPNLLAVGGSWLLQGNLEAVRAKVRAAKALLSPQAPG,not failed
